Assay results published in paper PMC11410649 (Nature, 2024).
Where two headings read alike, the source gives them in different places.

Legend:
canine NPR1 = canine NPR1 (Canis lupus familiaris, UniProt A0A8I3MHU3); assay: cell-based or functional assay
[1] = target: T1, human NPR1 on HEK293 cells (Homo sapiens, UniProt P16066); assay: flow cytometry on cells
[2] = target: T2, cynomolgus monkey NPR1 on HEK293 cells (Macaca fascicularis); assay: flow cytometry on cells
T2 chain: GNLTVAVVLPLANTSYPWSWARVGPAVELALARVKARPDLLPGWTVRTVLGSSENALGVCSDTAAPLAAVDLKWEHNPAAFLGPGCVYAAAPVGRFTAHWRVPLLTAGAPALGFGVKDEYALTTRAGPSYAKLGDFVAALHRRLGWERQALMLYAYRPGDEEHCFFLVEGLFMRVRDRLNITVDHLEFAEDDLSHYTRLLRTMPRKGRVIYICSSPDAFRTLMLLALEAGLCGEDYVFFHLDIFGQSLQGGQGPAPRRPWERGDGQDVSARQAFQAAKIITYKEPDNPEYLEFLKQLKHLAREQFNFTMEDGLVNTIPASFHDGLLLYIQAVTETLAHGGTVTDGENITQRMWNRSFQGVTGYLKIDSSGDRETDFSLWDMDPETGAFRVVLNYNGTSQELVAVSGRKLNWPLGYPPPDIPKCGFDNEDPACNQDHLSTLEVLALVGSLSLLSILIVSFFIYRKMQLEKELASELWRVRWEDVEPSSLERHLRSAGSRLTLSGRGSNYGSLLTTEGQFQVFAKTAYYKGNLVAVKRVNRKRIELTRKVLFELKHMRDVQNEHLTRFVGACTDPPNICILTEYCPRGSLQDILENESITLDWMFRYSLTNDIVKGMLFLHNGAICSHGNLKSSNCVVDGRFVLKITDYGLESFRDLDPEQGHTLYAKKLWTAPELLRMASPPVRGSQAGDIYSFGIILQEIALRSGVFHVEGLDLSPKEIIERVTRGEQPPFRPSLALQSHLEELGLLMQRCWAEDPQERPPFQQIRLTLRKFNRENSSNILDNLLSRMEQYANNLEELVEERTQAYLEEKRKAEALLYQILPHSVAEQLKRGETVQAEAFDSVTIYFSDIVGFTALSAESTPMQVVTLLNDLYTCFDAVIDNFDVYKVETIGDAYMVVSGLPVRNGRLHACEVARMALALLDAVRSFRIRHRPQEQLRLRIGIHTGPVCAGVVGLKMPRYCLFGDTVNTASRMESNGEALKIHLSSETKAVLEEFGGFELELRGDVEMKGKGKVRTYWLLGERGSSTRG

[3] = target: T1, human NPR1 on HEK293 cells; assay: flow cytometry on cells; remark: listed apart in the source
[4] = target: T2, cynomolgus monkey NPR1 on HEK293 cells; assay: flow cytometry on cells
[5] = target: T1, human NPR1 on HEK293 cells; assay: flow cytometry on cells; remark: listed apart in the source
[6] = target: T2, cynomolgus monkey NPR1 on HEK293 cells; assay: flow cytometry on cells
[7] = target: T3, monkey NPR1 extracellular domain with C-terminal MycMycHis (Macaca fascicularis); assay: SPR
T3 chain: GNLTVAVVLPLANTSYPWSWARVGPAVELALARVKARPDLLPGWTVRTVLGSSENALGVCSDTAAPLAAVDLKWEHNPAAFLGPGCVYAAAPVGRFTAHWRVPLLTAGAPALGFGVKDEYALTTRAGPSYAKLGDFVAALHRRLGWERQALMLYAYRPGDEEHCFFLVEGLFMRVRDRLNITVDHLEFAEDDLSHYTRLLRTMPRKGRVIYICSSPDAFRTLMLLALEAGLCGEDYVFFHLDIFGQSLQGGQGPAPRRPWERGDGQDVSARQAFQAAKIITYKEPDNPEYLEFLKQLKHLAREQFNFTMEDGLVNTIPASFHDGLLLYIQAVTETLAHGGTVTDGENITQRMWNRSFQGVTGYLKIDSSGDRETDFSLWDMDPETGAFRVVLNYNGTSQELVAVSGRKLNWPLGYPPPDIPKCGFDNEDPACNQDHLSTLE

mouse NPR1 protein = mouse NPR1 protein (mouse, UniProt P18293); assay: SPR
[8] = target: NPR2 extracellular domain with C-terminal MycMycHis (Homo sapiens, UniProt P20594); assay: SPR
[9] = target: NPR3 extracellular domain with C-terminal MycMycHis (Homo sapiens, UniProt P17342); assay: SPR
[10] = target: T4, atrial natriuretic peptide (human, UniProt P01160); assay: SPR
T4 chain: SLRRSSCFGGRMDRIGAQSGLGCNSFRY

NPR2 extracellular domain with C-terminal MycMycHis, sequence (P20594 23-458): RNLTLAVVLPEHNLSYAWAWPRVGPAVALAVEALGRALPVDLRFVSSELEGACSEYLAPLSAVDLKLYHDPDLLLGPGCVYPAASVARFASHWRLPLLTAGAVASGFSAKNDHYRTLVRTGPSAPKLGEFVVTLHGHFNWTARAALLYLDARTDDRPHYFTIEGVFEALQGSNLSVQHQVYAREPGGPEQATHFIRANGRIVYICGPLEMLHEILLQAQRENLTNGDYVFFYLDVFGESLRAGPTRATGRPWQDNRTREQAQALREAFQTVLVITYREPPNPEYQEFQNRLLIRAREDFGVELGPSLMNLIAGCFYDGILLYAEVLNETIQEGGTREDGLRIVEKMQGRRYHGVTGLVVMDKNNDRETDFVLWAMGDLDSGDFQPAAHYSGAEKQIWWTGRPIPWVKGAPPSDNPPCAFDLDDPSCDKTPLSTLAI
mouse NPR1 protein, sequence (P18293 29-469): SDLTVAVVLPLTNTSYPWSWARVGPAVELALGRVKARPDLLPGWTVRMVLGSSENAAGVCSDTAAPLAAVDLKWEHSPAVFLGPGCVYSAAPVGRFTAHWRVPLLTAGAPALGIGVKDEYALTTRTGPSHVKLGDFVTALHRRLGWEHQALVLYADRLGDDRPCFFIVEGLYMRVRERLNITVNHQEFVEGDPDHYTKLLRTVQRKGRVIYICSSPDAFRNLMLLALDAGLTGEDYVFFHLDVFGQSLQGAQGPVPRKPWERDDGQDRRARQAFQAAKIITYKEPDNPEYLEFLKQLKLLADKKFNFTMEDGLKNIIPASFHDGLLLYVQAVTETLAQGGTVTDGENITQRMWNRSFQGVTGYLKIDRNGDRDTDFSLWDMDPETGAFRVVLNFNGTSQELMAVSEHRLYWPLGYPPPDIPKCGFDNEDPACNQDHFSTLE
NPR3 extracellular domain with C-terminal MycMycHis, sequence (P17342 27-481): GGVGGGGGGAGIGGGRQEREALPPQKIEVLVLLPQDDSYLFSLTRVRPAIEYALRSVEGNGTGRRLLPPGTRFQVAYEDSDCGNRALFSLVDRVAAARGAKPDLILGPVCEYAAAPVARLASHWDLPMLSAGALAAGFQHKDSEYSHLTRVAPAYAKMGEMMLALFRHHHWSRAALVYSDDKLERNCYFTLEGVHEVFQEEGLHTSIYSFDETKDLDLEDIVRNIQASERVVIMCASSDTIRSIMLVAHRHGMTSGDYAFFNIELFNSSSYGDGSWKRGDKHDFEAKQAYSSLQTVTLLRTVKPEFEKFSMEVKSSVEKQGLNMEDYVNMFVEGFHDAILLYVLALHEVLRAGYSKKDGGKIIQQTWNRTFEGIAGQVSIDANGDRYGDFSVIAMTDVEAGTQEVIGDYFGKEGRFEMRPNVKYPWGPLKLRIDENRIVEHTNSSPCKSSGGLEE

B1: REGN5381 (antibody, V domains shown)
VH: QVQLVQSGAEVKKPGASVTVSCKASGYTFTDYYMHWVRQAPGQGLEWMGWIKPNSGGTNSAQRFQGRITMTWDTSISTAYMELSRLRSDDTAVYYCSRGGPVMNYYYYYGMDVWGQGTTVTVSS
VL: NIQMTQSPSSLSASVGDRVTITCRASQSIDSYLNWYQQKPGKAPKLLIYVASSLQSGVPSRFSGSGSGKDFTLTISSLQPEDFATYYCQQSYSIPTFGQGTRLEIK
activation of canine NPR1 (Supplementary Fig. 1); EC50 (canine NPR1): > 100 nM | EC50 [1]: 4.58 nM | EC50 [2]: 2.27 nM | EC50 [3]: 4.56 nM | EC50 [4]: 2.42 nM | EC50 [5]: 5.69 nM | EC50 [6]: 3.01 nM | binding result [7]: binds | binding result (mouse NPR1 protein): no binding | binding result [8]: no binding | binding result [9]: no binding | binding result [10]: no binding
